Columns and labels:
[1] = target: T1, CRP (N-his-CRP) (Shewanella oneidensis MR-1) (UniProt Q8EJ49); assay: EMSA; settings: 20 ul: 2 nM Cy3-labeled probe, 50 ng N-his-CRP, 50 uM cAMP, buffer as in Kasai et al. 2015 (salt, pH, temperature not given)
T1 sequence: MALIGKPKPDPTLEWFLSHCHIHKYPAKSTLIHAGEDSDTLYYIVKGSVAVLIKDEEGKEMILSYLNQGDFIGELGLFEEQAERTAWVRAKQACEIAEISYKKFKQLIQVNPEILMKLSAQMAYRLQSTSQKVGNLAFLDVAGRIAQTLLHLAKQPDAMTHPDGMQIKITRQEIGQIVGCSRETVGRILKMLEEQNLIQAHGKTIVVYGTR

CRP (N-his-CRP) = CRP (N-his-CRP) (Shewanella oneidensis MR-1, UniProt Q8EJ49 1-211); assay: EMSA; 50 uM cAMP; EMSA, 20 ul: 2 nM Cy3-labeled probe, 50 ng N-his-CRP, 50 uM cAMP; buffer as in Kasai et al. 2015 (salt, pH, temperature not given); settings: protein: recombinant; tags: N-terminal His tag; chain copies: 2; label: 5'-Cy3 (forward strand); blunt

“GGATCAGTTAATTGCAATACTGATAGCTAATTTAATGAAAATTTCCTTTTTTATAACTATCTGACATGTTTTTTAAAAAAATATTTGAATGGAGTTATATATACCCCACTCTTTAAGTGACA (double strand) [PBlldP1]” was tested. Which binding [1] did it give?
The binding was “no binding”.

With “GGATCAGTTAATTGCAATACTGATAGCTAATTTAATGAAAATTTCCTTTTTTATAACTATCTGACATGTTTTTTAAAAAAATATTTGAATGGAGTTATATATACCCCACTCTTTAAGTGACACCGATCACAGTTAAGAAAATCCCATGAGAGAAGCCTCCCGCAGCACTGTAAATTAGCATT (double strand) [PBlldP2]” as the molecule, how does the binding [1] read?
Its binding is “binds”.

B1: PBlldP3 (dsDNA)
DNA 1: ATATACCCCACTCTTTAAGTGACACCGATCACAGTTAAGAAAATCCCATG
DNA 2: CATGGGATTTTCTTAACTGTGATCGGTGTCACTTAAAGAGTGGGGTATAT
Does B1 bind (CRP (N-his-CRP))?
Result: binds

B2: PBlldP3m (dsDNA)
DNA 1: ATATACCCCACTCTTTACCCCCCACCGAGGGGGGTTAAGAAAATCCCATG
DNA 2: CATGGGATTTTCTTAACCCCCCTCGGTGGGGGGTAAAGAGTGGGGTATAT
Does B2 bind (CRP (N-his-CRP))?
Result: no binding
